Test results reported in patent US5972599, “High affinity nucleic acid ligands of cytokines” (NeXstar Pharmaceuticals, Inc.).
Residue numbers refer to the chain shown, from its start.

B1: TNF 15A (ssRNA)
RNA: GGGAGCUCAGAAUAAACGCUCAACGUCGAUCGCGUGCUGUAGCCUCAGGCACCUUCGACAUGAGGCCCGGAUCCGGC
B2: TNF 5C (ssRNA)
RNA: GGGAGCUCAGAAUAAACGCUCAACAGUCACGAACGUGCGCCGGAAGAACGCUCUUCGACAUGAGGCCCGGAUCCGGC
B3: TNF 6C (ssRNA)
RNA: GGGAGCUCAGAAUAAACGCUCAAUGUCGCACGUGUCCCGGCCCGCCCUACCCCUUCGACAUGAGGCCCGGAUCCGGC
B4: TNF 17C (ssRNA)
RNA: GGGAGCUCAGAAUAAACGCUCAAGAUCGAAGUUGUCGUCCGCCUCAGCGACUCUUCGACAUGAGGCCCGGAUCCGGC
B5: TNF 16A (ssRNA)
RNA: GGGAGCUCAGAAUAAACGCUCAAGGUGGAAGGCCUUUGAAGCCCGUACAUCUCCUUCGACAUGAGGCCCGGAUCCGGC
B6: TNF 17A (ssRNA)
RNA: GGGAGCUCAGAAUAAACGCUCAAGGUCGAACUAGCGCUGGAGCGUGCGUUGGUUUCGACAUGAGGCCCGGAUCCGGC
B7: TNF 19A (ssRNA)
RNA: GGGAGCUCAGAAUAAACGCUCAAGUCGAUGCGCAGUCCGCCUCAGCUGCACUGUUCGACAUGAGGCCCGGAUCCGGC
B8: TNF 21A (ssRNA)
RNA: GGGAGCUCAGAAUAAACGCUCAACGUCUAGGAACUGCGUCGCCUCAACAGCGCUUCGACAUGAGGCCCGGAUCCGGC
B9: TNF 22A (ssRNA)
RNA: GGGAGCUCAGAAUAAACGCUCAAGUCGGAUGGUUUUGCGCGUUUCCCGUUCGACAUGAGGCCCGGAUCCGGC
B10: TNF 26A (ssRNA)
RNA: GGGAGCUCAGAAUAAACGCUCAACCCUCGUGCGUGCGCUUGGAGCGUGGCGCAUUCGACAUGAGGCCCGGAUCCGGC
B11: TNF 27A (ssRNA)
RNA: GGGAGCUCAGAAUAAACGCUCAAGUCGCUCGAUCGUUUCAUGUCCGUUCGACCUUCGACAUGAGGCCCGGAUCCGGC
B12: IL-4 2'F-12 (ssRNA)
RNA: GGGAGACAAGAAUAAACGCUCAAGUCUGACUAUUGGGGCGCCACAAUAUCAACGGCUGUACUUCGACAGGAGGCUCACAACAGGC
modifications: 2'-F all C and U
B13: IL-4 2'F-18 (ssRNA)
RNA: GGGAGACAAGAAUAAACGCUCAAGCUGCCCAAGGAAUUUAACUUGGACCGCGAUCUGGAGUCUUCGACAGGAGGCUCACAACAGGC
modifications: 2'-F all C and U
B14: IL-4 2'F-21 (ssRNA)
RNA: GGGAGACAAGAAUAAACGCUCAAAGGAGCGCCAUGAAGCAAAGGGAGGAUUGUGGUGGAAGGCUUCGACAGGAGGCUCACAACAGGC
modifications: 2'-F all C and U
B15: IL-4 2'NH2-29 (ssRNA)
RNA: GGGAGACAAGAAUAAACGCUCAAGAGCUGGUGAGCCACGUAUACGGCCUUAGGGGCUUGGGCGUUCGACAGGAGGCUCACAACAGGC
modifications: 2'-NH2 all C and U
B16: IL-4 2'F/NH2-18 (ssRNA)
RNA: GGGAGACAAGAAUAAACGCUCAACCGCCUGCGAUAGUUAGACCGUUGAGCUGAGAGCAACACUUUCGACAGGAGGCUCACAACAGGC
modifications: 2'-F all C, 2'-NH2 all U
B17: IL-4 2'F/NH2-28 (ssRNA)
RNA: GGGAGACAAGAAUAAACGCUCAAGAUCCUGCGACGCCAGGGGUGGAUAGGGGGAAGGGAGCGGUUCGACAGGAGGCUCACAACAGGC
modifications: 2'-F all C, 2'-NH2 all U
B18: IL-4 2'F/NH2-16 (ssRNA)
RNA: GGGAGACAAGAAUAAACGCUCAAGGUACGACCAAGGAAUGUGGGUGGAAGAGGGCGCCGUACCUUCGACAGGAGGCUCACAACAGGC
modifications: 2'-F C, 2'-NH2 U
B19: IL-4 2'F/NH2-2 (ssRNA)
RNA: GGGAGACAAGAAUAAACGCUCAAGACGAACGACCAAGGGACGGGUGGGCAAAUAGGGAUGCCGUUCGACAGGAGGCUCACAACAGGC
modifications: 2'-F C, 2'-NH2 U
B20: IL-4 2'F/NH2-11 (ssRNA)
RNA: B18 RNA with C55U
modifications: 2'-F C, 2'-NH2 U
B21: IL-4 2'F/NH2-43 (ssRNA)
RNA: GGGAGACAAGAAUAAACGCUCAACAACGCUGACCAUGGGAGGAAUGUGGGAAGGGCGCCAGCGUUCGACAGGAGGCUCACAACAGGC
modifications: 2'-F C, 2'-NH2 U
B22: TNF 7C (ssRNA)
RNA: GGGAGCUCAGAAUAAACGCUCAACAGGUGGCACCGCCCUUCCAACACGGUGCGUUCGACAUGAGGCCCGGAUCCGGC
B23: TNF 10C (ssRNA)
RNA: GGGAGCUCAGAAUAAACGCUCAACGCCGAGACCCACCUCAUAACACCGCUACCUUCGACAUGAGGCCCGGAUCCGGC
B24: TNF 12C (ssRNA)
RNA: GGGAGCUCAGAAUAAACGCUCAAGUCCGCAUGAUGCUUCGAACAGCAUACAACUUCGACAUGAGGCCCGGAUCCGGC
B25: TNF 8A (ssRNA)
RNA: GGGAGCUCAGAAUAAACGCUCAACAGUGGAGGCUGUCCAAACCCACCCACCCCUUCGACAUGAGGCCCGGAUCCGGC
B26: TNF 4A 2'F (ssRNA)
RNA: GGGAGCUCAGAAUAAACGCUCAACGCACUCGGACGGAAUCUCCGUAGGACACGUUCGACAUGAGGCCCGGAUCCGGC
modifications: 2'-F all C and U
B27: TNF 9C 2'F (ssRNA)
RNA: GGGAGCUCAGAAUAAACGCUCAAAUGGUGGAGGCCAUCUCAAACCCACGACACUUCGACAUGAGGCCCGGAUCCGGC
modifications: 2'-F all C and U
B28: TNF 7C 2'F (ssRNA)
RNA: B22 RNA
modifications: 2'-F all C and U
B29: TNF 25A 2'F (ssRNA)
RNA: B24 RNA with U25G, A33C, U34C, G35C, U38C, G40U, A49G
modifications: 2'-F all C and U
B30: TNF 8C 2'F (ssRNA)
RNA: GGGAGCUCAGAAUAAACGCUCAAGUCCACACUUUGCCGAGCGUCCUAGUGUUCGACAUGAGGCCCGGAUCCGGC
modifications: 2'-F all C and U
B31: TNF 3A 2'F (ssRNA)
RNA: GGGAGCUCAGAAUAAACGCUCAAGAUCGACGCAUCGAGUCGCCUCAUCGCUCCUUCGACAUGAGGCCCGGAUCCGGC
modifications: 2'-F all C and U

Target: T1, TNF-alpha (Homo sapiens, UniProt P01375 P01375:77-233)
T1 sequence (P01375 77-233, one chain of several): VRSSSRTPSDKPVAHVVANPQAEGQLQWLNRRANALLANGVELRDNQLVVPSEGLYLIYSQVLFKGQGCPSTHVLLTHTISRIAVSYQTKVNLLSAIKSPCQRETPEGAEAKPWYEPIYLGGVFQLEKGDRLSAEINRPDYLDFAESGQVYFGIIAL
Experiment: filter; no value shown, Kd above 1 uM per footnote; DPBS
Details: tags: Genzyme or R&D Systems; chain copies: 3

Question: B1 was tested. Which Kd did it give?
Answer: > 1000 nM

Question: With B2 as the binder, how does the Kd read?
Answer: > 1000 nM

Question: For B3, which Kd is on record?
Answer: > 1000 nM

Question: How did the Kd turn out when B4 was run?
Answer: > 1000 nM

Question: Which Kd does the source give for B5 here?
Answer: > 1000 nM

Question: For B6, which Kd is on record?
Answer: > 1000 nM

Question: How did the Kd turn out when B7 was run?
Answer: > 1000 nM

Question: How did the Kd turn out when B8 was run?
Answer: > 1000 nM

Question: For B9, which Kd is on record?
Answer: > 1000 nM

Question: B10 was tested. Which Kd did it give?
Answer: > 1000 nM

Question: How did the Kd turn out when B11 was run?
Answer: > 1000 nM

Target: T2, IL-4 (Homo sapiens, UniProt P05112 P05112:25-153)
T2 sequence (P05112 25-153, one chain of several): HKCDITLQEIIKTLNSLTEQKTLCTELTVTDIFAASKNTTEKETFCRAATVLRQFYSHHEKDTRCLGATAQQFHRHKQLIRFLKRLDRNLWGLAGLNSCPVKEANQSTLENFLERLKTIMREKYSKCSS
Experiment: filter; full-length
Details: tags: R&D Systems

Question: How did the Kd turn out when B12 was run?
Answer: 30 nM

Question: B13 was tested. Which Kd did it give?
Answer: 43 nM

Question: How did the Kd turn out when B14 was run?
Answer: 11 nM

Question: How did the Kd turn out when B15 was run?
Answer: 8.3 nM

Question: For B16, which Kd is on record?
Answer: 30 nM

Question: With B17 as the binder, how does the Kd read?
Answer: 8.7 nM

Target: T2, IL-4
Experiment: filter; group 2 stated to bind IL-4
Details: tags: R&D Systems

Question: Does B18 bind?
Answer: binds

Question: Does B19 bind?
Answer: binds

Question: Does B20 bind?
Answer: binds

Question: Does B21 bind?
Answer: binds

Target: T1, TNF-alpha
Experiment: filter; class I
Details: tags: Genzyme or R&D Systems; chain copies: 3 inferred

Question: With B22 as the binder, how does the Kd read?
Answer: 297 nM

Question: With B23 as the binder, how does the Kd read?
Answer: 500 nM

Question: How did the Kd turn out when B24 was run?
Answer: 690 nM

Question: For B25, which Kd is on record?
Answer: 785 nM

Target: T1, TNF-alpha
Experiment: filter; 2'F version
Details: tags: Genzyme or R&D Systems; chain copies: 3 inferred

Question: With B26 as the binder, how does the Kd read?
Answer: 178 nM

Question: With B27 as the binder, how does the Kd read?
Answer: 400 nM

Question: For B28, which Kd is on record?
Answer: 442 nM

Question: With B29 as the binder, how does the Kd read?
Answer: 445 nM

Question: B30 was tested. Which Kd did it give?
Answer: 503 nM

Question: With B31 as the binder, how does the Kd read?
Answer: 623 nM
